This is an account of results in patent publication US20210395718A1, “NOVEL KETOSE 3-EPIMERASE” (NATIONAL UNIVERSITY CORPORATION KAGAWA UNIVERSITY, priority 2018, published 2021).

Changes are numbered by the printed parent chain.

Sequences and labels used below:
B1: Ketose 3-epimerase mutant 27: amino acid-substituted mutant of SEQ ID NO: 1 (protein)
chain: MKIGCHGLVWTGRFDAEGIRYSVQKTKEAGFDLIEFPLMDPFSFDVATAKSALAEHGLTASASLGLSEATDVSSEDPAIVKAGEELLNRALDVLAELGATEFCGVIYSAMKKYMEPATEQGLSNSKAAIGRVVDRAAGLGINVSLEVVNRYETNVLNTGRQALSYLSDVKRPNLGVHLDTYHMNIEESDMFSPVLDTAEALKYVHIGESHRGYLGTGSVDFDNFFKALGRIGYDGPVVFESFSSAVVAPDLSRMLGIWRNLWADNEELGAHANAFIRDKLTAIKTIELH
modifications: Arthrobacter histidinolovorans
B2: Ketose 3-epimerase mutant 36: amino acid-substituted mutant of SEQ ID NO: 1 (protein)
chain: B1 chain with L94V, E101D, I129V
modifications: Arthrobacter histidinolovorans
B3: Ketose 3-epimerase mutant 31: amino acid-substituted mutant of SEQ ID NO: 1 (protein)
chain: B1 chain with E101D, I129V, E199D
modifications: Arthrobacter histidinolovorans
B4: Ketose 3-epimerase mutant 28: amino acid-substituted mutant of SEQ ID NO: 1 (protein)
chain: B1 chain with A200V, S218N
modifications: Arthrobacter histidinolovorans
B5: Ketose 3-epimerase mutant 2: amino acid-substituted mutant of SEQ ID NO: 1 (protein)
chain: B1 chain with E101D, I129V, A200V, S218N
modifications: Arthrobacter histidinolovorans
B6: Ketose 3-epimerase mutant 1: amino acid-substituted mutant of SEQ ID NO: 1 (protein)
chain: B1 chain with T59S, A60V, A200V, S218N
modifications: Arthrobacter histidinolovorans
B7: Ketose 3-epimerase mutant 34: amino acid-substituted mutant of SEQ ID NO: 1 (protein)
chain: B1 chain with E101D, A128V, I129V
modifications: Arthrobacter histidinolovorans
B8: Ketose 3-epimerase mutant 30: amino acid-substituted mutant of SEQ ID NO: 1 (protein)
chain: B1 chain with E101D, I129V, S144A
modifications: Arthrobacter histidinolovorans
B9: Ketose 3-epimerase mutant 6: amino acid-substituted mutant of SEQ ID NO: 1 (protein)
chain: B1 chain with E101D, I129V, S218N
modifications: Arthrobacter histidinolovorans
B10: Ketose 3-epimerase mutant 4: amino acid-substituted mutant of SEQ ID NO: 1 (protein)
chain: B1 chain with T59S, A60V, E101D, I129V, A200V, S218N
modifications: Arthrobacter histidinolovorans
B11: Ketose 3-epimerase mutant 5: amino acid-substituted mutant of SEQ ID NO: 1 (protein)
chain: B1 chain with T59S, A60V, E101D, A200V
modifications: Arthrobacter histidinolovorans
B12: Ketose 3-epimerase mutant 32: amino acid-substituted mutant of SEQ ID NO: 1 (protein)
chain: B1 chain with P77S, E101D, I129V
modifications: Arthrobacter histidinolovorans
B13: Ketose 3-epimerase mutant 3: amino acid-substituted mutant of SEQ ID NO: 1 (protein)
chain: B1 chain with A200V
modifications: Arthrobacter histidinolovorans
B14: Ketose 3-epimerase mutant 33: amino acid-substituted mutant of SEQ ID NO: 1 (protein)
chain: B1 chain with T59S, A60V, I129V, A200V, S218N
modifications: Arthrobacter histidinolovorans
B15: Ketose 3-epimerase mutant 37: amino acid-substituted mutant of SEQ ID NO: 1 (protein)
chain: B1 chain with E101D, A109S, I129V
modifications: Arthrobacter histidinolovorans
B16: Ketose 3-epimerase mutant 35: amino acid-substituted mutant of SEQ ID NO: 1 (protein)
chain: B1 chain with E101D, I129V, V132I
modifications: Arthrobacter histidinolovorans
B17: Ketose 3-epimerase mutant 29: amino acid-substituted mutant of SEQ ID NO: 1 (protein)
chain: B1 chain with H56Y, E101D, I129V
modifications: Arthrobacter histidinolovorans

System in one data set: not listed separately
The data set can be described thus: Thermal stability: residual activity after incubation at 60° C. for one hour. Type of data set: biochemical. As to conditions: crude recombinant enzyme; after incubation at 60° C. for 1 hour. As for the experimental part: Thermal stability of the enzyme was investigated by measuring the activity of the enzyme after incubation at 60° C. for one hour and finding its relative activity supposing that the activity at 60° C. under the reaction conditions (10 minutes) used for determining the optimum temperature in the above 2 shown in Table 2 was 100. As heat treatment conditions, the crude enzyme solution, a buffer (50 mM tris-HCl, pH 7.5), and 2 mM MgCl2 were used to give a total amount of 200 p1 and after retaining at 60° C. for one hour, the reaction mixture was cooled for 10 minutes in ice water. The residual enzyme activity was then measured by the conventional method.
The activity of each of the present enzyme (crude recombinant enzyme) and the crude enzyme of the control enzyme after incubation at 60° C. for 1 hour was measured and a relative activity of it was determined supposing that the activity at 60° C. under the reaction conditions (10 minutes) for determining the optimum temperature in the above 2 shown in Table 2 is 100. The relative activity was used as a heat resistance index of the enzyme. As heat treatment conditions, the crude enzyme solution, a buffer (50 mM tris-HCl, pH 7.5), and 2 mM MgCl2 were used to give a total amount of 200 p1 and after retaining at 60° C. for one hour, the reaction mixture was cooled for 10 minutes in ice water. The residual enzyme activity was measured by the conventional method.
For the molecule B1, the “Residual activity (%)” value turned out to be 61.9%.
Still for that read-out and setting: to B2 belongs 57.0%; to B3, 58.1%; to B4, 112.7%.
On the same count and under the same terms, to B5 belongs 83.3%.
On the same count and under the same terms, in the case of B6 it was 74.1%; in that of B7, 57.2%; in that of B8, 66.9%.
With B9, the “Residual activity (%)” value is on record as 101.2%.
In the case of B10, the “Residual activity (%)” value is on record as 123.2%.
Same read-out and setting: in the case of B11 it was 85.1%; in that of B12, 39.9%.
The same measure, in the same setting: to B13 belongs 94.5%; to B14, 91.0%.
The same measure, in the same setting: in the case of B15 it was 63.3%.
With B16, the “Residual activity (%)” value amounted to 69.2%.
On the same count and under the same terms, in the case of B17 it was 56.8%.

System in another data set: not listed separately
The data set can be described thus: Ketose 3-epimerase activity ratio (T70/T50) at reaction temperature of 70° C. to 50° C. As to conditions: crude recombinant enzyme; ratio of activity at 70° C. to activity at 50° C., 10 min reaction. It counts as biochemical. As for the experimental part:
An enzyme having higher heat resistance than an amino acid substitution-free wild type enzyme can be obtained by introducing mutation into the gene of the ketose 3-epimerase of the present invention and substituting the corresponding amino acid residue with another amino acid residue by a site-directed mutagenesis operation to prepare various amino acid-substituted mutants. The heat resistance is evaluated by two indices, that is, a ketose 3-epimerase activity ratio (T70/T50) at the reaction temperatures of 70° C. to 50° C. and a residual activity after incubation at 60° C. for one hour.
Heat resistance of the present enzyme (crude recombinant enzyme) and the crude enzyme of the control enzyme was investigated by measuring an activity at 70° C. and an activity at 50° C. under the reaction conditions (10 minutes) used for determining the optimum temperature in the above 2 shown in Table 2 and finding their ratio (T70/T50).
B1: the T70/T50 is recorded as 1.64.
Still for that read-out and setting: to B2 belongs 1.30; to B3, 1.54; to B4, 1.62.
Still for that read-out and setting: in the case of B5 it was 2.31; in that of B6, 2.37; in that of B7, 1.38.
With B8, the T70/T50 is on record as 1.57.
The same measure, in the same setting: in the case of B9 it was 2.05.
With B10, the T70/T50 is 2.08.
Same read-out and setting: to B11 belongs 2.07.
As to B12, the T70/T50 amounted to 1.53.
On the same count and under the same terms, in the case of B13 it was 2.11.
Same read-out and setting: to B14 belongs 1.46; to B15, 1.07; to B16, 1.34.
Same read-out and setting: in the case of B17 it was 1.58.

The subject of the next data set is ketose 3-epimerase (present enzyme, purified enzyme of wild strain). The data set can be described thus: Substrate specificity of ketose 3-epimerase using 8 kinds of ketohexoses. It counts as biochemical, Arthrobacter histidinolovorans Y586-1 strain. As to conditions: each substrate 0.1 M, phosphate buffer pH 8.0, 70° C., 10 min; epimerization activity for D-allulose = 100. As for the experimental part: The substrate specificity of the present enzyme after purification was investigated using 8 kinds of ketohexoses. […] After a reaction at 70° C. for 10 minutes, the reaction mixture was analyzed by HPLC to measure a ketose produced by epimerization of each sugar.
Supposing that the epimerization activity for D-allulose is 100, the activity for each ketose is shown as a relative activity.
For the molecule `O=C(CO)[C@H](O)[C@@H](O)[C@H](O)CO` [D-sorbose], the “Relative activity (%)” value is given as “trace”.
Same read-out and setting: in the case of `O=C(CO)[C@H](O)[C@H](O)[C@H](O)CO` [D-allulose] it was 100.0%; in that of `O=C(CO)[C@@H](O)[C@H](O)[C@@H](O)CO` [L-sorbose], “trace”; in that of `O=C(CO)[C@@H](O)[C@H](O)[C@H](O)CO` [D-fructose], 43.4%.
Still for that read-out and setting: to `O=C(CO)[C@H](O)[C@@H](O)[C@@H](O)CO` [L-fructose] belongs “trace”.
In the case of `O=C(CO)[C@@H](O)[C@@H](O)[C@H](O)CO` [D-tagatose], the “Relative activity (%)” value worked out at 72.2%.
On the same count and under the same terms, to `O=C(CO)[C@H](O)[C@H](O)[C@@H](O)CO` [L-tagatose] belongs 59.2%; to `O=C(CO)[C@@H](O)[C@@H](O)[C@@H](O)CO` [L-allulose], 27.1%.
